Key:
Table 11 peptide No. 22 = target: T1, Table 11 peptide No. 22 (human); test: PEPSCAN CLIPS peptide ELISA
T1 peptide: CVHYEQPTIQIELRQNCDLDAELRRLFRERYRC

Table 11 peptide No. 3 = target: T2, Table 11 peptide No. 3 (human); test: PEPSCAN CLIPS peptide ELISA
T2 peptide: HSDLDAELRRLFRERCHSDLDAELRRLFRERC

Table 11 peptide No. 23 = target: T3, Table 11 peptide No. 23 (human); test: PEPSCAN CLIPS peptide ELISA
T3 peptide: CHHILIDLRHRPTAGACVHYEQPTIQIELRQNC

Table 11 peptide No. 7 = target: T4, Table 11 peptide No. 7 (human); test: PEPSCAN CLIPS peptide ELISA
T4 peptide: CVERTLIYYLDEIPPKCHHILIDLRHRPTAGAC

Table 11 peptide No. 9 = target: T5, Table 11 peptide No. 9 (human); test: PEPSCAN CLIPS peptide ELISA
T5 peptide: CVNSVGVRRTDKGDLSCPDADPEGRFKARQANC

Table 11 peptide No. 13 = target: T6, Table 11 peptide No. 13 (human); test: PEPSCAN CLIPS peptide ELISA
T6 peptide: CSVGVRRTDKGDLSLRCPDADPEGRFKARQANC

Table 11 peptide No. 2 = target: T7, Table 11 peptide No. 2 (human); test: PEPSCAN CLIPS peptide ELISA
T7 peptide: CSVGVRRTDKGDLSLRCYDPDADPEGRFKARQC

Table 11 peptide No. 10 = target: T8, Table 11 peptide No. 10 (human); test: PEPSCAN CLIPS peptide ELISA
T8 peptide: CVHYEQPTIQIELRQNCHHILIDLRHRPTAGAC

Table 11 peptide No. 18 = target: T9, Table 11 peptide No. 18 (human); test: PEPSCAN CLIPS peptide ELISA
T9 peptide: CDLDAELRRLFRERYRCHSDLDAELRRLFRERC

Table 11 peptide No. 17 = target: T10, Table 11 peptide No. 17 (human); test: PEPSCAN CLIPS peptide ELISA
T10 peptide: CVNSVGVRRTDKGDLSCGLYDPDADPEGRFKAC

Table 11 peptide No. 21 = target: T11, Table 11 peptide No. 21 (human); test: PEPSCAN CLIPS peptide ELISA
T11 peptide: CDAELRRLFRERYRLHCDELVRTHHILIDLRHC

Table 11 peptide No. 20 = target: T12, Table 11 peptide No. 20 (human); test: PEPSCAN CLIPS peptide ELISA
T12 peptide: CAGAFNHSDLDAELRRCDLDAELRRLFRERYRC

Table 11 peptide No. 16 = Table 11 peptide No. 16 (human); test: PEPSCAN CLIPS peptide ELISA
Sequence of Table 11 peptide No. 16 (human) (peptide, as listed by the source): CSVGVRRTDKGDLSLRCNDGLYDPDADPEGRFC

Table 11 peptide No. 14 = target: T13, Table 11 peptide No. 14 (human); test: PEPSCAN CLIPS peptide ELISA
T13 peptide: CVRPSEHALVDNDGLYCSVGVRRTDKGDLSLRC

Table 11 peptide No. 8 = target: T14, Table 11 peptide No. 8 (human); test: PEPSCAN CLIPS peptide ELISA
T14 peptide: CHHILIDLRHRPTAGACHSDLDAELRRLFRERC

Table 11 peptide No. 6 = target: T15, Table 11 peptide No. 6 (human); test: PEPSCAN CLIPS peptide ELISA
T15 peptide: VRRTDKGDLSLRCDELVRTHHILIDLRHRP

Table 11 peptide No. 26 = target: T16, Table 11 peptide No. 26 (human); test: PEPSCAN CLIPS peptide ELISA
T16 peptide: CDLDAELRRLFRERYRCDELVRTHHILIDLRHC

Table 11 peptide No. 4 = target: T17, Table 11 peptide No. 4 (human); test: PEPSCAN CLIPS peptide ELISA
T17 peptide: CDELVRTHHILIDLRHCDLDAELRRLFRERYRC

Table 11 peptide No. 12 = target: T18, Table 11 peptide No. 12 (human); test: PEPSCAN CLIPS peptide ELISA
T18 peptide: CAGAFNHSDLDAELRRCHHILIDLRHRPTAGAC

Table 11 peptide No. 15 = target: T19, Table 11 peptide No. 15 (human); test: PEPSCAN CLIPS peptide ELISA
T19 peptide: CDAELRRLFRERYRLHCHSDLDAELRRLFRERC

Table 11 peptide No. 1 = target: T20, Table 11 peptide No. 1 (human, not fully specified); test: PEPSCAN CLIPS peptide ELISA
T20 peptide: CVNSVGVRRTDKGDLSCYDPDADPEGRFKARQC

Table 11 peptide No. 24 = Table 11 peptide No. 24 (human); test: PEPSCAN CLIPS peptide ELISA
Sequence of Table 11 peptide No. 24 (human) (peptide, as listed by the source): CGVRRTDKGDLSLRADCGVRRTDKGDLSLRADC

Table 11 peptide No. 25 = target: T21, Table 11 peptide No. 25 (human); test: PEPSCAN CLIPS peptide ELISA
T21 peptide: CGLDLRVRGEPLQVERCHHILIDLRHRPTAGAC

Table 11 peptide No. 19 = target: T22, Table 11 peptide No. 19 (human); test: PEPSCAN CLIPS peptide ELISA
T22 peptide: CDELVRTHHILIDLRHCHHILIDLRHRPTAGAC

Table 11 peptide No. 11 = target: T23, Table 11 peptide No. 11 (human); test: PEPSCAN CLIPS peptide ELISA
T23 peptide: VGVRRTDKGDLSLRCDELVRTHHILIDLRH

[1] = target: T24, recombinant protein of the extracellular region of hTROP-2 (human); test: ELISA of free antibody after equilibration with antigen in solution
T24 sequence: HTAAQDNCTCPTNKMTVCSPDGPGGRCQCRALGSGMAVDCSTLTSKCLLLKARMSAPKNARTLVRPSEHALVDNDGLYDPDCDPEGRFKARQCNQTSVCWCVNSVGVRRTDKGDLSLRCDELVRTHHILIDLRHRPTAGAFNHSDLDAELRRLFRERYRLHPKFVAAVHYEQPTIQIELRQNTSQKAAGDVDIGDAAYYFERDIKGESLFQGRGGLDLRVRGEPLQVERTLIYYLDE

human TROP-2 (hTROP-2) [2] = target: T25, human TROP-2 (hTROP-2) (human); test: FACS on PK-59 cells
T25 chain: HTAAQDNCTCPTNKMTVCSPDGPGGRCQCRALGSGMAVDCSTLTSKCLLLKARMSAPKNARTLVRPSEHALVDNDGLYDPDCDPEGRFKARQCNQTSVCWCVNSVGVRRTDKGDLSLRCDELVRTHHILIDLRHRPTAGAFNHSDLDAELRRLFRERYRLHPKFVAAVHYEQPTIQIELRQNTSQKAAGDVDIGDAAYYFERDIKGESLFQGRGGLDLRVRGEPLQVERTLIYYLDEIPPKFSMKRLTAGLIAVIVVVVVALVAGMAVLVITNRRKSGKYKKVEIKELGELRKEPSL

human TROP-2 (hTROP-2) [3] = target: T25, human TROP-2 (hTROP-2); test: FACS on BxPC-3 cells

binding of T6-16 (Table 11 peptide No. 22): 526
binding of T6-16 (Table 11 peptide No. 3): 714
binding of T6-16 (Table 11 peptide No. 23): 524
binding of T6-16 (Table 11 peptide No. 7): 626
binding of T6-16 (Table 11 peptide No. 9): 611
binding of T6-16 (Table 11 peptide No. 13): 585
binding of T6-16 (Table 11 peptide No. 2): 786
binding of T6-16 (Table 11 peptide No. 10): 602
binding of T6-16 (Table 11 peptide No. 18): 534
binding of T6-16 (Table 11 peptide No. 17): 553
binding of T6-16 (Table 11 peptide No. 21): 527
binding of T6-16 (Table 11 peptide No. 20): 529
binding of T6-16 (Table 11 peptide No. 16): 559
binding of T6-16 (Table 11 peptide No. 14): 573
binding of T6-16 (Table 11 peptide No. 8): 620
binding of T6-16 (Table 11 peptide No. 6): 670
binding of T6-16 (Table 11 peptide No. 26): 516
binding of T6-16 (Table 11 peptide No. 4): 713
binding of T6-16 (Table 11 peptide No. 12): 592
binding of T6-16 (Table 11 peptide No. 15): 566
binding of T6-16 (Table 11 peptide No. 1): 1070
binding of T6-16 (Table 11 peptide No. 24): 524
binding of T6-16 (Table 11 peptide No. 25): 521
binding of T6-16 (Table 11 peptide No. 19): 534
binding of T6-16 (Table 11 peptide No. 11): 601
Kd [1]: 4.3 pM
mean fluorescence intensity, times that with PE-labeled anti-mouse IgG only (human TROP-2 (hTROP-2) [2]): 59 times
mean fluorescence intensity, times that with PE-labeled anti-mouse IgG only (human TROP-2 (hTROP-2) [3]): 25 times
B1: anti-hTROP-2 monoclonal antibody T6-16 (antibody, V domains shown)
VH: EVQLQQSGPELVKPGASVKISCKASGYTFTDYNMHWVKQSHGKNLEWIGYIYPYNGGTGYNQRFKSRATMTVDKSSSTAYMELRSLTSDDSAVYYCAREDYGSSPSYAMDYWGQGTSVIVSS
VL: DVVMTQTPLSLPVSLGDQASISCRSSQSLVHGNGNTYLHWYLQKPGQSPKLLIYKVSNRFSGVPDRFSGSGSGTDFTLKISRVEAEDLGVYFCSQTTHVPTFGSGTKLEIK
